Measured values taken from patent publication US20260234234A1 (QILU PUGET SOUND BIOTHERAPEUTICS, published 2026).
Like-named read-outs stand apart in the source and are kept apart here.

Key:
[1] = molecular target: hTSLP antigen, version not stated (human, UniProt Q969D9 29-159, limits assumed); test: cell-based or functional assay
[2] = molecular target: T1, Avitag_c-MYC_His6_hTSLP QB11631 with mutations of R127A + R130S (human); test: SPR (Biacore), hTSLP (R127A+R130S) antigen
T1 construct: Substitutions and tags already in the entry; also called hTSLP (R127A+R130S)

[3] = molecular target: T1, Avitag_c-MYC_His6_hTSLP QB11631 with …; test: SPR (Biacore)
[4] = molecular target: Avitag_c-MYC_His6_hTSLP (wild type) QB11630 (human); test: cell-based or functional assay
[5] = molecular target: T1, Avitag_c-MYC_His6_hTSLP QB11631 with …; test: cell-based or functional assay
[6] = molecular target: T2, Avitag_c-MYC_His6_hTSLP QB11033 with deletion of 126KRRKR130 (human); test: cell-based or functional assay
T2 chain: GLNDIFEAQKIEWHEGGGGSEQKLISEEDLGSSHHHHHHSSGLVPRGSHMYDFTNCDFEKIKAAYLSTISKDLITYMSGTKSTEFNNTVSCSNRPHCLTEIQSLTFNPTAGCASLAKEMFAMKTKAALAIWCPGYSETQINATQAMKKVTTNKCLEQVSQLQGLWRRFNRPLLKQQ

[7] = molecular target: T3, Avitag_FLAG_His6_cyTSLP QB11632 (wild type) (cynomolgus monkey); test: cell-based or functional assay
T3 chain: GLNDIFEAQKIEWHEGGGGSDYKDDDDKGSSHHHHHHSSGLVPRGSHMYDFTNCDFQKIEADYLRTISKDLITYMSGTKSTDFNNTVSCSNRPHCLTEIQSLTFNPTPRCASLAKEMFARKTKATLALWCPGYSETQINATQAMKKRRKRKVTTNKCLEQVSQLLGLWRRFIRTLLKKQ

[8] = molecular target: T4, Avitag_FLAG_His6_cyTSLP QB10974 with deletion of 126KRRKR130 (cynomolgus monkey); test: cell-based or functional assay
T4 chain: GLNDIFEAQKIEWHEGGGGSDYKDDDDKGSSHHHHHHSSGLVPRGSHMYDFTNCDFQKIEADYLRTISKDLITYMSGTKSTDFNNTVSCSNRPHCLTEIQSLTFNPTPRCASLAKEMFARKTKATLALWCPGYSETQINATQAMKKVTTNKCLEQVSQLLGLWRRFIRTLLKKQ

[9] = molecular target: T5, Avitag_FLAG_His6_cyTSLP QB11633 with mutations of R127A + R130S (cynomolgus monkey); test: cell-based or functional assay
T5 chain: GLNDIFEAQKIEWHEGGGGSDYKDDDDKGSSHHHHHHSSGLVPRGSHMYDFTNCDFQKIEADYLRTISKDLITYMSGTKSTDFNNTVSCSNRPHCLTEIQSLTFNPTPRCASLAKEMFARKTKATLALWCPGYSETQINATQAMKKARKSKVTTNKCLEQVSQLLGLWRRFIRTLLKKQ

[10] = molecular target: Avitag_c-MYC_His6_hTSLP (wild type) QB11630 (human); test: cell-based or functional assay; remark: listed apart in the source
[11] = molecular target: T1, Avitag_c-MYC_His6_hTSLP QB11631 with …; test: cell-based or functional assay; remark: listed apart in the source
[12] = molecular target: T2, Avitag_c-MYC_His6_hTSLP QB11033 with …; test: cell-based or functional assay
[13] = molecular target: T3, Avitag_FLAG_His6_cyTSLP QB11632 (wild …); test: cell-based or functional assay
[14] = molecular target: T4, Avitag_FLAG_His6_cyTSLP QB10974 with …; test: cell-based or functional assay
[15] = molecular target: T5, Avitag_FLAG_His6_cyTSLP QB11633 with …; test: cell-based or functional assay
[16] = molecular target: T6, His6-tagged cyIL-33 (Ser112-Ile270), QB10976 (cynomolgus monkey); test: SPR, captured antibody, cyIL-33 analyte, 25 C, 1:1 fit
T6 construct: Entry includes N-terminal Avitag, FLAG and His6 tags; isoform X1, NCBI XP_005581824; also called cyIL-33 antigen
T6 chain: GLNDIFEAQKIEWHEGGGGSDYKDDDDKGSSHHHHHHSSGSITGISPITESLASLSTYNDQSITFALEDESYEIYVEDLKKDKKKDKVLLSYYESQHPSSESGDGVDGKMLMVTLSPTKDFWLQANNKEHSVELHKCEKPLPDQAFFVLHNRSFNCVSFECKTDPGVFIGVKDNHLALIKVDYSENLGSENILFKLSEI

[17] = molecular target: T6, His6-tagged cyIL-33 (Ser112-Ile270), …; test: cell-based or functional assay
[18] = molecular target: T7, hIL-33 used in the cell-based assays of Example 13 (human, UniProt O95760 112-270); test: cell-based or functional assay
T7 sequence (looked up): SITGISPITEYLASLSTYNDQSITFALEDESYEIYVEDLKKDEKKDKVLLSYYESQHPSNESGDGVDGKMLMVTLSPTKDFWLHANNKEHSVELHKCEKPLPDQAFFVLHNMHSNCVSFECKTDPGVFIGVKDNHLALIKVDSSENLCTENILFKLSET

[19] = molecular target: T6, His6-tagged cyIL-33 (Ser112-Ile270), …; test: SPR, cyIL-33 analyte
[20] = molecular target: T8, Avitag_c-MYC_His6-tagged hIL-33 (Ser112-Thr270), QB10975 (human); test: SPR, captured antibody, hIL-33 analyte, 37 C, 1:1 fit
T8 construct: Entry includes N-terminal Avitag, c-MYC and His6 tags; reduced with DTT to the active form; also called active hIL-33; reduced hIL-33
T8 chain: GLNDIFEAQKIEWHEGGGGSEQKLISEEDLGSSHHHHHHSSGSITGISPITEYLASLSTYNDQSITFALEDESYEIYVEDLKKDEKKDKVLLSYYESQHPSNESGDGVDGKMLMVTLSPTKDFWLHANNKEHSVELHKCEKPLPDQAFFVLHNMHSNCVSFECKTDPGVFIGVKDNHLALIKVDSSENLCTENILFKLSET

B1: rabbit anti-hTSLP monoclonal antibody clone 135F1 (antibody, V domains shown)
VH: QEQLEESGGDLVKPEGSLTLTCKASGFDFSSYWISWVRQAPGKRPEWIACIDSDIDSADYASWAKGRFTMSRTSSTTVTLQMTSLTAADTATYFCVRNLGLWGPGTLVTVSS
VL: AQVLTQTASPVSAAVGGTVTINCQSSQNVYDKDALAWYQHKPGQRPKLLIYEASKLASGVPSRFSGSGAGTQFTLTISGVQCDDAATYYCAGTFIDNIYTFGGGTEVVVKG
IC50, inhibition of hTSLP-induced CCL17 release from human monocytes [1]: 4.24 nM

B2: anti-hTSLP antibody QB11341, humanized clone 135F1 (antibody, human IgG4 S228P, kappa, V domains shown)
VH: EVQLVESGGGLVQPGGSLRLSCAASGFDFSSYWISWVRQAPGKGPEWIASIDIDIDIADYASWAKGRFTISRDNSKNTLYLQMNSLRAEDTAVYYCVRNLGLWGPGTLVTVSS
VL: DIQMTQSPSSLSASVGDRVTITCQSSQNVYDKDALAWYQHKPGKRPKLLIYEASKLASGVPSRFSGSGSGTHFTLTISSLQPEDAATYYCAGTFIDNIYTFGGGTKVEIKR
notes: also called QB1341; top clone
Kd [2]: 1.76 nM | koff [2]: 0.00148 s⁻¹ | kon [2]: 842000 M⁻¹ s⁻¹ | fold lower binding affinity against comparator antibody QB10985 [3]: ~10 fold | IC50 (nM) for inhibition of CCL17 secretion [4]: 0.333 nM | IC50 (nM) for inhibition of CCL17 secretion [5]: 0.626 nM | IC50 (nM) for inhibition of CCL17 secretion [6]: 0.361 nM | IC50 (nM) for inhibition of CCL17 secretion [7]: 0.888 nM | IC50 (nM) for inhibition of CCL17 secretion [8]: 0.712 nM | IC50 (nM) for inhibition of CCL17 secretion [9]: 0.93 nM

B3: anti-hTSLP antibody QB11548, humanized clone 135F1 after yeast display (antibody, human IgG4 S228P, kappa, V domains shown)
VH: EVQLVESGGGLVQPGGSLRLSCAASGFDFSSYWISWVRQAPGKGPEWIASIDIDIDIADYASWAKGRFTISRDNSKNTLYLQMNSLRAEDTAVYYCVRNLGLWGPGTLVTVSS
VL: DIQMTQSPSSLSASVGDRVTITCQSSQNVYDKDALAWYQHKPGKRPKLLIYEASRLASGVPSRFSGSGSGTHFTLTISSLQPEDAATYYCAGTRIDNIYTFGGGTKVEIKR
IC50 (nM) for inhibition of CCL17 secretion [10]: 0.0757 nM | IC50 (nM) for inhibition of CCL17 secretion [11]: 0.286 nM | IC50 (nM) for inhibition of CCL17 secretion [12]: 0.0921 nM | IC50 (nM) for inhibition of CCL17 secretion [13]: 0.254 nM | IC50 (nM) for inhibition of CCL17 secretion [14]: 0.251 nM | IC50 (nM) for inhibition of CCL17 secretion [15]: 0.464 nM

B4: anti-hIL-33 IgG4 antibody QB11465 (antibody)
heavy: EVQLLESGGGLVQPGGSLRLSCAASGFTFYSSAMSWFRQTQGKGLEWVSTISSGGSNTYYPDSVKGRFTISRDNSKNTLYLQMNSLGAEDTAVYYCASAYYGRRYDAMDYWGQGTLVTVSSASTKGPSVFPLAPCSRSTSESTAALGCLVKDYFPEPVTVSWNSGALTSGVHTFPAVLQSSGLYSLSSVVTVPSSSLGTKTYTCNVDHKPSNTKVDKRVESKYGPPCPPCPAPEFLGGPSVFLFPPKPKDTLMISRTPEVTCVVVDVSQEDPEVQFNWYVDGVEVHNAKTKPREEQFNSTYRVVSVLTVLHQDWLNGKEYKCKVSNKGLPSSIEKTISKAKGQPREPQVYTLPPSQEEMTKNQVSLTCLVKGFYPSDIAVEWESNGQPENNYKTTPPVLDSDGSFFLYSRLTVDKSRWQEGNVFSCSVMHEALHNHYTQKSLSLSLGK
light: DVVMTQSPPSLPVTLGQSASISCKSSESLLHSNANTYLYWFQQRPGQSPQLLIYRGSNLASGVPDRFSGSGSGTDFTLKISRVEAEDVGVYYCMQHLRNPYTFGQGTKVEIKRTVAAPSVFIFPPSDEQLKSGTASVVCLLNNFYPREAKVQWKVDNALQSGNSQESVTEQDSKDSTYSLSSTLTLSKADYEKHKVYACEVTHQGLSSPVTKSFNRGEC
notes: also called lead anti-hIL-33 IgG4 antibody
Kd [16]: 5.14 nM | koff [16]: 0.00191 s⁻¹ | kon [16]: 371000 M⁻¹ s⁻¹ | IC50, inhibition of cyIL-33-induced p38 MAPK phosphorylation in ILC2s (FIG. 17D) [17]: 4.4 nM | IC50, inhibition of hIL-33-induced IFNγ secretion from primary human NK cells [18]: 1 nM | IC50, inhibition of hIL-33-induced hIL-5 secretion from primary human ILC2 cells [18]: 2.39 nM | IC50, inhibition of hIL-33-induced p38 MAPK phosphorylation in ILC2s (FIG. 17C) [18]: 0.33 nM | IC50, inhibition of hIL-33-induced p38 MAPK phosphorylation in ILC2s (FIG. 17D) [18]: 0.82 nM | fold improvement of affinity against parental antibody QB11119 [19]: ~3 fold | Kd [20]: 0.209 nM | koff [20]: 0.000695 s⁻¹ | kon [20]: 3.33e+06 M⁻¹ s⁻¹
